Positions count from the first letter of the chain named. Numbers in names are those of the source. Where “and” joins values, the source holds several entries; their conditions need not be identical. Identical values can stand only once.
B1: CaMKIIα hub (6His-V15-mCaMKIIα hub construct: Venus tag, 15-amino-acid linker, α association domain) (domain or fragment)
chain: VRKQEIIKVTEQLIEAISNGDFESYTKMCDPGMTAFEPEALGNLVEGLDFHRFYFENLWSRNSKPVHTTILNPHIHLMGDESACIAYIRITQYLDAGGIPRTAQSEETRVWHRRDGKWQIVHFHRSGAPSVLPH
notes: CaMKII alpha association domain (AD); made from the holoenzyme construct by removal of the kinase domain; The plasmid is named mCaMKIIα, but the introduction speaks of rat α hubs; also called isolated α hub; CaMKIIα AD hub; source: E. coli BL21/Rosetta, co-transformed with a protein phosphatase plasmid, purified (nickel Hi-Trap); not shown: Venus, N-terminal, kept
B2: CaMKIIβ hub (6His-V15-rCaMKIIβ hub construct) (domain or fragment, rat)
chain: ARKQEIIKTTEQLIEAVNNGDFEAYAKICDPGLTSFEPEALGNLVEGMDFHRFYFENLLAKNSKPIHTTILNPHVHVIGEDAACIAYIRLTQYIDGQGRPRTSQSEETRVWHRPDGKWQNVHFHCSGAPVAPLQ
notes: rat CaMKII beta association domain (AD); made from the holoenzyme construct by removal of the kinase domain; also called isolated β hub; native β; source: E. coli BL21/Rosetta, co-transformed with a protein phosphatase plasmid, purified (nickel Hi-Trap); not shown: Venus, N-terminal, kept
B3: CaMKIIβ hub F458A (domain or fragment, rat)
chain: B2 chain with F50A
notes: rat CaMKII beta association domain (AD) with F458A; as m2 with the substitution; The methods describe F458A mutagenesis only of 6His-V15-rCaMKIIβ (the holoenzyme construct); The results say that F458A disassembles isolated β hubs; also called βF458A (isolated hub); source: E. coli BL21/Rosetta, co-transformed with a protein phosphatase plasmid, purified (nickel Hi-Trap); not shown: Venus, …
B4: CaMKIIβ holoenzyme T287A/T306A/T307A (6His-V15-rCaMKIIβ triple mutant) (enzyme, rat, UniProt P08413 1-542, looked up)
chain: MATTVTCTRFTDEYQLYEDIGKGAFSVVRRCVKLCTGHEYAAKIINTKKLSARDHQKLEREARICRLLKHSNIVRLHDSISEEGFHYLVFDLVTGGELFEDIVAREYYSEADASHCIQQILEAVLHCHQMGVVHRDLKPENLLLASKCKGAAVKLADFGLAIEVQGDQQAWFGFAGTPGYLSPEVLRKEAYGKPVDIWACGVILYILLVGYPPFWDEDQHKLYQQIKAGAYDFPSPEWDTVTPEAKNLINQMLTINPAKRITAHEALKHPWVCQRSTVASMMHRQEAVECLKKFNARRKLKGAILAAMLATRNFSVGRQTTAPATMSTAASGTTMGLVEQAKSLLNKKADGVKPQTNSTKNSSAITSPKGSLPPAALEPQTTVIHNPVDGIKESSDSTNTTIEDEDAKARKQEIIKTTEQLIEAVNNGDFEAYAKICDPGLTSFEPEALGNLVEGMDFHRFYFENLLAKNSKPIHTTILNPHVHVIGEDAACIAYIRLTQYIDGQGRPRTSQSEETRVWHRPDGKWQNVHFHCSGAPVAPLQ
notes: rat CaMKII beta, open reading frame codon optimized for bacterial expression, with T287A, T306A and T307A; Only the association-domain hub is resolved in the cryo-EM maps; also called engineered β holoenzyme; source: E. coli BL21/Rosetta, co-transformed with a protein phosphatase plasmid, purified (nickel Hi-Trap); not shown: Venus, N-terminal, kept

Assays:
[1] = target: the molecule itself; assay: cryo-EM structure; isolated Venus-tagged hubs, 20 mg/mL, flash-frozen stocks thawed on ice, grids plunge-frozen at 4 °C and 100% humidity; self-assembly of the association domains
[2] = target: the molecule itself; assay: SEC; EnRich SEC 650 column, 50 mM Tris, 150 mM KCl, 0.2 mM TCEP, 2% glycerol, pH 8.0, room temperature, thawed stocks applied without dilution, 250 μL, 1 mL/min
[3] = target: the molecule itself; assay: cryo-EM structure; Venus-tagged β holoenzyme sample, 20 mg/mL, fresh rather than flash-frozen preparation, grids plunge-frozen at 4 °C and 100% humidity; only the hub resolved

| Protein | stoichiometry N [1] | other results |
| --- | --- | --- |
| B1 | 12 and 14 | – |
| B2 | 12 and 14 | – |
| B3 | – | stoichiometry N [2]: 2 |
| B4 | – | stoichiometry N [3]: 14 and 12 |

From PMC11199487, “Hub stability in the calcium calmodulin-dependent protein kinase II” (Communications Biology, 2024)
